For assay [1], the target named is T1, CRM197 (Corynebacterium diphtheriae, UniProt P00587 26-560). Description: SPR, Biacore T200, His-tagged HB-EGF captured on NTA chip.
For assay [2], the target named is T1, CRM197. Described as above. The source holds these as a separate data set.

Read-outs that look alike come from different tables or passages of the source.

B1: C-terminal His-tagged HB-EGF lacking the heparin-binding domain (ligand)
chain: DLQEADLDLLRVTLSSKPQALATPNKEEHGDPCLRKYKDFCIHGECKYVKELRAPSCICHPGYHGERCHGLSLP
notes: Captured on a Ni2+ NTA sensor chip for Biacore; also called C-terminal His-tagged recombinant HB-EGF; Δ••-EGF-His
B1: the Ka amounted to 9.22e+08 M⁻¹ in assay [1] and 9.8e+08 M⁻¹ in assay [2].

(Values after patent US20170029474A1 (OSAKA UNIVERSITY, published 2017).)
